Where two headings read alike, the source gives them in different places.
B1: KEN-01 (mFc-tagged, SPR) (natural protein)
chain: AKGAAAAEAARIPAAIDAVIKGIVTKFGVSTESVQGLKSLFTANTYNDVTKIARAINEQYNPSSCLTGGSGADNSICPWAMENFFAARKIPGFIQREAVSMNDVIEKTVKTIVSDAPKTAETAAKKATEG
B2: LILRB1 (receptor)
chain: GHLPKPTLWAEPGSVITQGSPVTLRCQGGQETQEYRLYREKKTALWITRIPQELVKKGQFPIPSITWEHAGRYRCYYGSDTAGRSESSDPLELVVTGAYIKPTLSAQPSPVVNSGGNVILQCDSQVAFDGFSLCKEGEDEHPQCLNSQPHARGSSRAIFSVGPVSPSRRWWYRCYAYDSNSPYEWSLPSDLLELLVLGVSKKPSLSVQPGPIVAPEETLTLQCGSDAGYNRFVLYKDGERDFLQLAGAQPQAGLSQANFTLGPVSRSYGGQYRCYGAHNLSSEWSAPSDPLDILIAGQFYDRVSLSVQPGPTVASGENVTLLCQSQGWMQTFLLTKEGAADDPWRLRSTYQSQKYQAEFPMGPVTSAHAGTYRCYGSQSSKPYLLTHPSDPLELVVSGPSGGPSSPTTGPTSTSGPEDQPLTPTGSDPQSGLGRHLGVVIGILVAVILLLLLLLLLFLILRHRRQGKHWTSTQRKADFQHPAGAVGPEPTDRGLQWRSSPAADAQEENLYAAVKHTQPEDGVEMDTRSPHDEDPQAVTYAEVKHSRPRREMASPPSPLSGEFLDTKDRQAEEDRQMDTEAAASEAPQDVTYAQLHSLTLRREATEPPPSQEGPSPAVPSIYATLAIH
B3: KIR2DS1 (SPR protein) (receptor)
chain: HEGVHRKPSLLAHPGRLVKSEETVILQCWSDVMFEHFLLHREGMFNDTLRLIGEHHDGVSKANFSISRMKQDLAGTYRCYGSVTHSPYQLSAPSDPLDIVIIGLYEKPSLSAQPGPTVLAGENVTLSCSSRSSYDMYHLSREGEAHERRLPAGTKVNGTFQANFPLGPATHGGTYRCFGSFRDSPYEWSKSSDPLLVSVTGNPSNSWPSPTEPSSETGNPRHLH
B4: KIR2DL1 (residues 27-221) (domain or fragment)
chain: RKPSLLAHPGRLVKSEETVILQCWSDVMFEHFLLHREGMFNDTLRLIGEHHDGVSKANFSISRMTQDLAGTYRCYGSVTHSPYQVSAPSDPLDIVIIGLYEKPSLSAQLGPTVLAGENVTLSCSSRSSYDMYHLSREGEAHERRLPAGPKVNGTFQADFPLGPATHGGTYRCFGSFHDSPYEWSKSSDPLLVSVT
modifications: N-linked glycan on N67 (N-acetylglucosamine-fucose core seen in the structures)

How the values were obtained:
Test in all cases: SPR
KIR2DS1 (SPR protein) = target: B3
[1] = target: B4
SEN-08 [2] = target: T1, SEN-08 (P. falciparum pfSN01)
[3] = target: one of the six Kenyan RIFINs (pfKE01) that bound to LILRB1
SEN-12 [4] = target: T2, SEN-12 (P. falciparum pfSN01)
SEN-08 [5] = target: T1, SEN-08; remark: listed apart in the source
KEN-04 [6] = target: T3, KEN-04 (P. falciparum pfKE01)
KEN-02 [7] = target: T4, KEN-02 (P. falciparum pfKE01)
SEN-01 [8] = target: T5, SEN-01 (P. falciparum pfSN01)
KEN-06 [9] = target: T6, KEN-06 (P. falciparum pfKE01)
SEN-12 [10] = target: T2, SEN-12; remark: listed apart in the source
KEN-04 [11] = target: T3, KEN-04; remark: listed apart in the source
KEN-02 [12] = target: T4, KEN-02; remark: listed apart in the source
SEN-01 [13] = target: T5, SEN-01; remark: listed apart in the source
KEN-06 [14] = target: T6, KEN-06; remark: listed apart in the source

## B1
KIR2DS1 (SPR protein)
  Kd: 300 nM
[1]
  Kd: 100 nM

## B2
SEN-08 [2]
  Kd: 5500 nM
[3]
  Kd: 2600 nM

## B3
SEN-12 [4]
  Kd: 500 nM
SEN-08 [5]
  Kd: 2100 nM
KEN-04 [6]
  Kd: 5400 nM
KEN-02 [7]
  Kd: 2600 nM
SEN-01 [8]
  Kd: 1100 nM
KEN-06 [9]
  Kd: 900 nM

## B4
SEN-12 [10]
  Kd: 400 nM
SEN-08 [2]
  Kd: 3500 nM
KEN-04 [11]
  Kd: 2000 nM
KEN-02 [12]
  Kd: 2200 nM
SEN-01 [13]
  Kd: 3400 nM
KEN-06 [14]
  Kd: 400 nM

Source: article PMC12310515 (2025)
